According to patent US6177078A (Medvet Science Pty Limited, priority 1995, dated 2001):

Assays:
IL-3Rα chain = target: T1, IL-3Rα chain (Homo sapiens, UniProt P26951); experiment: Competition for 125I-7G3 binding to F6 cells by IL-3 or GM-CSF; details: F6 cells expressing IL-3Rα chain alone, preincubated, 1 nM 125I-7G3
T1 construct: expressed in transfected cells
T1 sequence (P26951 19-378): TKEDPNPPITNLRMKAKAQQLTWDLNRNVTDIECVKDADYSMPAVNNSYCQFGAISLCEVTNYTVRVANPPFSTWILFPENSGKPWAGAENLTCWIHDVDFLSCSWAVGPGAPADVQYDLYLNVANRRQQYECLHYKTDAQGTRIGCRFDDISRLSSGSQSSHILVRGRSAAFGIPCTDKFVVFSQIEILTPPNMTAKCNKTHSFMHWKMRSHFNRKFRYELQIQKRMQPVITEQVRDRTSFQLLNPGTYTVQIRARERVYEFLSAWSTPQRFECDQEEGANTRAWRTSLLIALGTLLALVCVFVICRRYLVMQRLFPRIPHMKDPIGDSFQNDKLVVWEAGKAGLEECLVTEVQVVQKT
Protocol: (§1) The binding curve was analysed by Scatchard transformation.^31 In competition binding experiments F6 cells or COS cells co-expressing IL-3R α and β chains were preincubated for 2 hours at 4° C. with a range of concentrations of IL-3 or GM-CSF before adding 1 nM of ^125 I-7G3 for a further 2 hours.

IL-3R α and β chains = target: T2, IL-3R α and β chains (Homo sapiens, UniProt P26951); experiment: Competition for 125I-7G3 binding to COS cells expressing IL-3R α and β chains by IL-3 or GM-CSF; details: COS cells transfected with IL-3Rα and β chain, preincubated, 1 nM 125I-7G3
T2 construct: expressed in transfected cells; host or cells: COS (monkey fibroblast) cells, transient co-transfection
T2 sequence (P26951 19-378): T1 sequence (P26951 19-378)
Protocol: as §1

GM-CSF: GM-CSF, a gift from Genetics Institute
inhibition of 125I-7G3 binding to the IL-3R (IL-3Rα chain): not
inhibition of 125I-7G3 binding to the IL-3R (IL-3R α and β chains): not
